From doi:10.1101/2021.06.07.447473 come the findings set out here.

Usually Kd stands for the concentration at which binding is half-saturated. Low values mean higher affinity, high ones lower affinity.

For this test, the target named is eIF2B(αβδγε)2 decamer, eIF2Bβ Avi-tagged and biotinylated (human) (UniProt Q14232). Kind of test: SPR. Background: In SPR one partner is held on a chip, and binding of the other changes the refractive index at the surface.

In turn, “Sandfly Fever Sicilian virus (SFSV) NSs protein with C-terminal 6xHIS tag (NSs::6xHIS) (natural protein)” yielded a Kd of 43 nM.
